Test [1] concerns the target synthetic AL amyloid fibrils composed of the recombinant λ6 light chain variable domain from patient (human). As to the kind of experiment: co-sedimentation; "pulldown" bioactivity assay as a1; batch product stored 3 h at RT post-synthesis.
Test [2] has the same target. As to the kind of experiment: co-sedimentation; "pulldown" bioactivity assay as a1; batch product 6 h post-synthesis (some loss of ^99mTcO4^-1 from the peptide).
For test [3] the target is unchanged. As to the kind of experiment: co-sedimentation; pulldown as for WIL fibrils except that 1.0% bovine serum albumin was added; synthetic rVλ6WIL fibrils as substrate.
The target is the same in test [4]. As to the kind of experiment: co-sedimentation; "pulldown" bioactivity assay; product labelled from lyophilized "kit" preparations stored at -80°C for 7, 98 and 128 days.
The target in test [5] is ALκ amyloid extract (patient liver) (human (endogenous in patient liver)). As to the kind of experiment: co-sedimentation; pulldown with tissue amyloid extracts suspended in PBS at 1 mg/mL, homogenized; as for WIL fibrils except that 1.0% bovine serum albumin was added.
The target in test [6] is ALλ amyloid extract (patient spleen) (human (endogenous in patient spleen)). The test is described as above.
Test [7] deals with ATTRv amyloid extract (patient heart), variant not named (human (endogenous in patient heart)) (UniProt P02766). The description is as above.
The target of test [8] is murine splenic AA amyloid extract (mouse (endogenous in spleen)) (UniProt P05367). The description is as above.
Sequence of murine splenic AA amyloid extract (mouse (endogenous in spleen)) (P05367 20-122): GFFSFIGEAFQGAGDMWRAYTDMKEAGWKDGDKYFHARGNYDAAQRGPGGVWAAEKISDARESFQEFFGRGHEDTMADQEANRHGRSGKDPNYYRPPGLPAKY
Test [9] has as its target synthetic AL amyloid fibrils composed of the recombinant λ6 light chain variable domain from patient (human). As to the kind of experiment: co-sedimentation; "pulldown" bioactivity assay; batch product at 0 h post-synthesis; 25 ug fibrils in PBS with 0.05% tween 20, 20-40 ng radiolabeled product, 1 h at RT, centrifugation 10,000 x g 3 min, gamma counting of pellet and supernatant.

Sequence of ^99mTc-labeled p5+14 peptide (peptide): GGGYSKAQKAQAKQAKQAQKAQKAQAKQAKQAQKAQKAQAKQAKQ

Regarding ^99mTc-labeled p5+14 peptide, the Bioactivity (bound %), 3 h post-synthesis in test [1] came to 92.9%. In [2], the Bioactivity (bound %), 6 h post-synthesis came to 72.2%. Also, the bound (%) in test [3] was found to be 91.1%; in test [5], 93.3%; in test [6] it was 88.1%; in test [7], 79%; in test [8], 67.8%. Besides, the bioactivity (% bound), kit at day 7 in test [4] came to 76.8%. In addition, the bioactivity (% bound), kit at day 98 in test [4] stood at 75.1%. For the same substance, the bioactivity (% bound), kit at day 128 in test [4] was determined as 75.2%. In addition, the Bioactivity (bound %), 0 h post-synthesis in test [9] was determined as 94%.

(Values after paper PMC10997057.)
